# Measurements from IntAct's records for PubMed 21408167.
# B1: Death-associated protein kinase 2 (Homo sapiens), Q9UIK4-2 (parent)
# chain: MFQASMRSPNMEPFKQQKVEDFYDIGEELGSGQFAIVKKCREKSTGLEYAAKFIKKRQSRASRRGVSREEIEREVSILRQVLHHNVITLHDVYENRTDVVLILELVSGGELFDFLAQKESLSEEEATSFIKQILDGVNYLHTKKIAHFDLKPENIMLLDKNIPIPHIKLIDFGLAHEIEDGVEFKNIFGTPEFVAPEIVNYEPLGLEADMWSIGVITYILLSGASPFLGDTKQETLANITAVSYDFDEEFFSQTSELAKDFIRKLLVKETRKRLTIQEALRHPWITSKGEGRAPEQRKTEPTQLKTKHLREYTLKCHSSMPPNNSYVNFERFACVVEDVARVDLGCRALVEAHDTIQDDVEALVSIFNEKEAWYREENESARHDLSQLRYEFRKVESLKKLLREDIQATGCSLGSMARKLDHLQAQFEILRQELSADLQWIQELVGSFQLESGSSEGLGSTFYQDTSESLSELLSRSCTEEFLAGWKL
# Variants of: B1
# Conditions: with atf4_human ATF4, P18848
# Sequence of atf4_human ATF4, P18848 (P18848 whole entry): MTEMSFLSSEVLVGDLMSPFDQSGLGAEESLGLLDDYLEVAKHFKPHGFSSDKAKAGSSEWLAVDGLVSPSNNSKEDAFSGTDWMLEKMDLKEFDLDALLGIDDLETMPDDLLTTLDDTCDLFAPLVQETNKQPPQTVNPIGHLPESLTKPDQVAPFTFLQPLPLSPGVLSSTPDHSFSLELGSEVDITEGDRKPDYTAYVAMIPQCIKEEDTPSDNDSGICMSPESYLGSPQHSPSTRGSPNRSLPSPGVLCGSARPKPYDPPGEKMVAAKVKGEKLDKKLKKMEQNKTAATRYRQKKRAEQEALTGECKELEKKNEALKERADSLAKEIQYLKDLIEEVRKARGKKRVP
row,Variant,effect of a mutation on the interaction
1,L434A;I441A;F448A,decreasing interaction
